T1: Rv0348 (MosR) (Mycobacterium tuberculosis H37Rv) (UniProt O06299)
T1 sequence: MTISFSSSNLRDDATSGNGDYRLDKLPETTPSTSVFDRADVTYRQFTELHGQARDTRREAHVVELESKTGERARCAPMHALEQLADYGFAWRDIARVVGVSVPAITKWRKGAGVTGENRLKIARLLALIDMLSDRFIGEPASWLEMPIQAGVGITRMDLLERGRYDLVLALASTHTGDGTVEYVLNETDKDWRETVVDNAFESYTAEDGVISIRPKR

B1: Rv0348-His6 (natural protein)
chain: T1 sequence
notes: also called mosR; not shown: His6, C-terminal, kept

What was measured:
[1] = target: T1, Rv0348 (MosR) (Mycobacterium tuberculosis H37Rv); assay: EMSA
[2] = target: T2, Phosphorylated DevR (DevR~P) (Mycobacterium tuberculosis, UniProt P9WMF9 1-217, phosphorylated using 50 mM acetyl phosphate (residue not stated)); assay: native gel or EMSA; conditions: both partners purified
T2 construct: DevR, two-component response regulator of Mycobacterium tuberculosis (devR of the Rv3134c-devR-devS operon), phosphorylated in vitro with acetyl phosphate; also called His6-DevR phosphorylated
T2 sequence (P9WMF9 whole entry): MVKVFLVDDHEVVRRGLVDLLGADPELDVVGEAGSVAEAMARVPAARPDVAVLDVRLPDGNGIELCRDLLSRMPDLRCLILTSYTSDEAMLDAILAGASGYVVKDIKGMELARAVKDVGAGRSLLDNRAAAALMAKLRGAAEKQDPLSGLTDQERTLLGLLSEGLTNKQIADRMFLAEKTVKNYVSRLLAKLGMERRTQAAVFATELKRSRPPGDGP

| Molecule | binding [1] | binding result [2] |
| --- | --- | --- |
| TTACTGGCGGGGACCGCTATCTCCCAGGGGCGTTGGTCCCCACCTGAGGGCCGTTAGTCCTTATCGACCGATGACAGACGCAACCCGTCAGGGCGAGAATGAATCTCACCTATCGCACGGGTGGCTCGTCCAGGTCCACAACCATCGCCCAGCTTTTCACAGCAAAGTCCCAGAAATGGCTTACAGTTGCCGACAGCTGCCGAACCAGCGGCCGTC (double strand) [Rv3134c promoter fragment (devR operon promoter)] | no binding |  |
| B1 |  | binds |

Reference: article PMC6868718, “Multiple transcription factors co-regulate the Mycobacterium tuberculosis adaptation response to vitamin C” (BMC Genomics, 2019)
